In article PMC3248755 one finds Km data, which are given here for one protein.

Substrate in the series: CSC(=N)NCCC[C@H](N)C(=O)O
Briefly: steady-state kinetics. The class given is biochemical, Homo sapiens.

B1: human dimethylarginine dimethylaminohydrolase-1 (DDAH-1) (Homo sapiens) (protein)
chain: MAGLGHPAAFGRATHAVVRALPESLGQHALRSAKGEEVDVARAERQHQLYVGVLGSKLGLQVVELPADESLPDCVFVEDVAVVCEETALITRPGAPSRRKEVDMMKEALEKLQLNIVEMKDENATLDGGDVLFTGREFFVGLSKRTNQRGAEILADTFKDYAVSTVPVADGLHLKSFCSMAGPNLIAIGSSESAQKALKIMQQMSDHRYDKLTVPDDIAANCIYLNIPNKGHVLLHRTPEEYPESAKVYEKLKDHMLIPVSMSELEKVDGLLTCCSVLINKKVDS
The Km is the substrate concentration at which the rate is half of its maximum. B1: the Km is 0.37 ± 0.03 µM.
